Data published in publication PMC4206950 (Chemical science (Royal Society of Chemistry : 2010), 2014).

B1: SABP2 (Nicotiana tabacum) (protein)
chain: MKEGKHFVLVHGACHGGWSWYKLKPLLEAAGHKVTALDLAASGTDLRKIEELRTLYDYTLPLMELMESLSADEKVILVGHSLGGMNLGLAMEKYPQKIYAAVFLAAFMPDSVHNSSFVLEQYNERTPAENWLDTQFLPYGSPEEPLTSMFFGPKFLAHKLYQLCSPEDLALASSLVRPSSLFMEDLSKAKYFTDERFGSVKRVYIVCTEDKGIPEEFQRWQIDNIGVTEAIEIKGADHMAMLCEPQKLCASLLEIAHKYN
B2: PFE (Pseudomonas fluorescens) (protein)
chain: STFVAKDGTQIYFKDWGSGKPVLFSHGWLLDADMWEYQMEYLSSRGYRTIAFDRRGFGRSDQPWTGNDYDTFADDIAQLIEHLDLKEVTLVGFSMGGGDVARYIARHGSARVAGLVLLGAVTPLFGQKPDYPQGVPLDVFARFKTELLKDRAQFISDFNAPFYGINKGQVVSQGVQTQTLQIALLASLKATVDCVTAFAETDFRPDMAKIDVPTLVIHGDGDQIVPFETTGKVAAELIKGAELKVYKDAPHGFAVTHAQQLNEDLLAFLKR

Experiments:
Experiment in all cases: purified protein
[1] = system: CC(=O)Oc1ccc([N+](=O)[O-])cc1; format: biochemical, Hevea brasiliensis; conditions: BES pH 7.2, 25 °C, about 7 vol% acetonitrile
[2] = system: CC(C)(O)C#N; format: biochemical, Hevea brasiliensis; conditions: pH 5 citrate buffer
[3] = system: N#CC(O)c1ccccc1; format: biochemical, Hevea brasiliensis; conditions: pH 5.0 citrate buffer, 25 °C, racemic substrate
[4] = system: CC(=O)Oc1ccccc1; conditions: […] BES pH 7.2, 5% MeCN
[5] = substrate: CC(=O)Oc1ccc([N+](=O)[O-])cc1; format: biochemical, Nicotiana tabacum; conditions: BES pH 7.2, 25 °C, about 7 vol% acetonitrile
[6] = substrate: CC(=O)Oc1ccc([N+](=O)[O-])cc1; format: biochemical, Pseudomonas fluorescens; conditions: BES pH 7.2, 25 °C, about 7 vol% acetonitrile

| Molecule | Km [1] | kcat [1] | kcat/Km [1] | further results |
| --- | --- | --- | --- | --- |
| HbHNL (Hevea brasiliensis; E79H) | 190 ± 40 µM | 0.00133 ± 6.67e-05 s⁻¹ | 6.83 M⁻¹ s⁻¹ | – |
| HbHNL (Hevea brasiliensis; E79H/K236G/T11G) | 160 ± 20 µM | 0.027 ± 0.000833 s⁻¹ | 168 M⁻¹ s⁻¹ | Km [2]: 6500 ± 1000 µM; kcat [2]: 0.0967 ± 0.00833 s⁻¹; kcat/Km [2]: 14.8 M⁻¹ s⁻¹; Km [3]: 3200 ± 900 µM; kcat [3]: 0.135 ± 0.0167 s⁻¹; kcat/Km [3]: 41.7 M⁻¹ s⁻¹; Km [4]: 2800 ± 400 µM; kcat [4]: 0.02 ± 0.00167 s⁻¹; kcat/Km [4]: 6.83 M⁻¹ s⁻¹ |
| HbHNL (Hevea brasiliensis; E79H/T11G) | 140 ± 20 µM | 0.00967 ± 0.000333 s⁻¹ | 69.3 M⁻¹ s⁻¹ | – |
| HbHNL (Hevea brasiliensis; K236G/T11G) | 150 ± 20 µM | 0.00217 ± 6.67e-05 s⁻¹ | 14.3 M⁻¹ s⁻¹ | – |
| HbHNL (Hevea brasiliensis; K236M) | 580 ± 50 µM | 0.0123 ± 0.000333 s⁻¹ | 21.2 M⁻¹ s⁻¹ | – |
| HbHNL (Hevea brasiliensis; T11G) | 200 ± 40 µM | 0.0015 ± 8.33e-05 s⁻¹ | 7.5 M⁻¹ s⁻¹ | – |
| B1 | – | – | – | Km [5]: 1400 ± 100 µM |
| B2 | – | – | – | Km [6]: 450 µM |
